Data as given in paper PMC4067574 (Protein expression and purification, 2010).
Several values for one entry are separate records, joined by “and”; a condition that tells them apart may be missing. Identical values can stand only once.

Target: C3b (UniProt P01024 23-667; P01024 749-1663)
Test: SPR

C3b, sequence (P01024 23-667, chain 1 of 2): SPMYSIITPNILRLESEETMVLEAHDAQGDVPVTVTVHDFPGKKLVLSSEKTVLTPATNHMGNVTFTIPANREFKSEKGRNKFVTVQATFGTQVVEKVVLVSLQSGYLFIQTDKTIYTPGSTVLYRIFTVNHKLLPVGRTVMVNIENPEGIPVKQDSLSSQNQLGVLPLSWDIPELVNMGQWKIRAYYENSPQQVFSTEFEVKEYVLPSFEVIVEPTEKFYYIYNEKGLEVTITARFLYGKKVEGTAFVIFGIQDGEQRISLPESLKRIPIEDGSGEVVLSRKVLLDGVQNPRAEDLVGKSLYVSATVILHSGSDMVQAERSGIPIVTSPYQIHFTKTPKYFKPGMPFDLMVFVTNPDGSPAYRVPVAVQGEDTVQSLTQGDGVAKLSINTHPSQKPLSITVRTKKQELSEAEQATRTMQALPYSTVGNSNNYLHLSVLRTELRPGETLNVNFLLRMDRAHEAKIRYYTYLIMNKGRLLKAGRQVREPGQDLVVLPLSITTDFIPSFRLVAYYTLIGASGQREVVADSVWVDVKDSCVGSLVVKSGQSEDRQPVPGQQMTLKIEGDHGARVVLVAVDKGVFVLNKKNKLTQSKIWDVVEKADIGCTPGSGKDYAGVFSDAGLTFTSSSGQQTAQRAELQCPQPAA
C3b, sequence (P01024 749-1663, chain 2 of 2): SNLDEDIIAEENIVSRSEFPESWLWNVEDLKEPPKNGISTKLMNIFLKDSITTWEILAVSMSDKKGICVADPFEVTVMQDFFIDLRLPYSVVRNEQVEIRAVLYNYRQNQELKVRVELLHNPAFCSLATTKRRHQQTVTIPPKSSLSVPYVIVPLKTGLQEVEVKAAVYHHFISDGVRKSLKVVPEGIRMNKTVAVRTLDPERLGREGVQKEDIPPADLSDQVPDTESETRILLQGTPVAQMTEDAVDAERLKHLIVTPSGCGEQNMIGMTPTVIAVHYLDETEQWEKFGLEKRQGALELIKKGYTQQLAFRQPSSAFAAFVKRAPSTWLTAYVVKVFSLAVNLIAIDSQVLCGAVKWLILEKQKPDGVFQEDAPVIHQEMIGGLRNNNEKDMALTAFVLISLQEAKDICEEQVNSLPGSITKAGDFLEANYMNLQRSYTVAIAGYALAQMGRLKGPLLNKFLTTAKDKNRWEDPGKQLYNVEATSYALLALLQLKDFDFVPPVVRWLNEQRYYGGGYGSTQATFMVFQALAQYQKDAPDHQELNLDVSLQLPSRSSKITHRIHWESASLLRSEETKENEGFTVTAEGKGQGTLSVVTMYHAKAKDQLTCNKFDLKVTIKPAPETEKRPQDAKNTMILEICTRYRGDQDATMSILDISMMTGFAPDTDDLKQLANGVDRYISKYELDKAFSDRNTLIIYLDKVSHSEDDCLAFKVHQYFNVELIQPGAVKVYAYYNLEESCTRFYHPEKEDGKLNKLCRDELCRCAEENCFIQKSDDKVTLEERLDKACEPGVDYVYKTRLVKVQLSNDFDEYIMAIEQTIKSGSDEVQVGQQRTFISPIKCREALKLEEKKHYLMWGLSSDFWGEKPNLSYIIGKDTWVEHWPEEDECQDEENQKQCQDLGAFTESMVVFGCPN

| Kd | Binder |
| --- | --- |
| 1500 nM and 1400 nM | recombinant human complement factor H, V62,Y402 variant (rFH), Endo Hf-deglycosylated (natural protein, UniProt P08603 19-1231, looked up, eight residual N-acetylglucosamine moieties after endoglycosidase H (Endo Hf) digestion of the N-linked glycans) EDCNELPPRRNTEILTGSWSDQTYPEGTQAIYKCRPGYRSLGNVIMVCRKGEWVALNPLRKCQKRPCGHPGDTPFGTFTLTGGNVFEYGVKAVYTCNEGYQLLGEINYRECDTDGWTNDIPICEVVKCLPVTAPENGKIVSSAMEPDREYHFGQAVRFVCNSGYKIEGDEEMHCSDDGFWSKEKPKCVEISCKSPDVINGSPISQKIIYKENERFQYKCNMGYEYSERGDAVCTESGWRPLPSCEEKSCDNPYIPNGDYSPLRIKHRTGDEITYQCRNGFYPATRGNTAKCTSTGWIPAPRCTLKPCDYPDIKHGGLYHENMRRPYFPVAVGKYYSYYCDEHFETPSGSYWDHIHCTQDGWSPAVPCLRKCYFPYLENGYNQNYGRKFVQGKSIDVACHPGYALPKAQTTVTCMENGWSPTPRCIRVKTCSKSSIDIENGFISESQYTYALKEKAKYQCKLGYVTADGETSGSITCGKDGWSAQPTCIKSCDIPVFMNARTKNDFTWFKLNDTLDYECHDGYESNTGSTTGSIVCGYNGWSDLPICYERECELPKIDVHLVPDRKKDQYKVGEVLKFSCKPGFTIVGPNSVQCYHFGLSPDLPICKEQVQSCGPPPELLNGNVKEKTKEEYGHSEVVEYYCNPRFLMKGPNKIQCVDGEWTTLPVCIVEESTCGDIPELEHGWAQLSSPPYYYGDSVEFNCSESFTMIGHRSITCIHGVWTQLPQCVAIDKLKKCKSSNLIILEEHLKNKKEFDHNSNIRYRCRGKEGWIHTVCINGRWDPEVNCSMAQIQLCPPPPQIPNSHNMTTTLNYRDGEKVSVLCQENYLIQEGEEITCKDGRWQSIPLCVEKIPCSQPPQIEHGTINSSRSSQESYAHGTKLSYTCEGGFRISEENETTCYMGKWSSPPQCEGLPCKSPPEISHGVVAHMSDSYQYGEEVTYKCFEGFGIDGPAIAKCLGEKWSHPPSCIKTDCLSLPSFENAIPMGEKKDVYKAGEQVTYTCATYYKMDGASNVTCINSRWTGRPTCRDTSCVNPPTVQNAYIVSRQMSKYPSGERVRYQCRSPYEMFGDEEVMCLNGNWTEPPQCKDSTGKCGPPPPIDNGDITSFPLSVYAPASSVEYQCQNLYQLEGNKRITCRNGQWSEPPKCLHPCVISREIMENYNIALRWTAKQKLYSRTGESVEFVCKRGYRLSSRSHTLRTTCWDGKLEYPTCAKR |
| 2900 nM | plasma-purified human complement factor H (reference FH) (natural protein, UniProt P08603 19-1231, looked up, eight N-glycans (native protein)) EDCNELPPRRNTEILTGSWSDQTYPEGTQAIYKCRPGYRSLGNVIMVCRKGEWVALNPLRKCQKRPCGHPGDTPFGTFTLTGGNVFEYGVKAVYTCNEGYQLLGEINYRECDTDGWTNDIPICEVVKCLPVTAPENGKIVSSAMEPDREYHFGQAVRFVCNSGYKIEGDEEMHCSDDGFWSKEKPKCVEISCKSPDVINGSPISQKIIYKENERFQYKCNMGYEYSERGDAVCTESGWRPLPSCEEKSCDNPYIPNGDYSPLRIKHRTGDEITYQCRNGFYPATRGNTAKCTSTGWIPAPRCTLKPCDYPDIKHGGLYHENMRRPYFPVAVGKYYSYYCDEHFETPSGSYWDHIHCTQDGWSPAVPCLRKCYFPYLENGYNQNYGRKFVQGKSIDVACHPGYALPKAQTTVTCMENGWSPTPRCIRVKTCSKSSIDIENGFISESQYTYALKEKAKYQCKLGYVTADGETSGSITCGKDGWSAQPTCIKSCDIPVFMNARTKNDFTWFKLNDTLDYECHDGYESNTGSTTGSIVCGYNGWSDLPICYERECELPKIDVHLVPDRKKDQYKVGEVLKFSCKPGFTIVGPNSVQCYHFGLSPDLPICKEQVQSCGPPPELLNGNVKEKTKEEYGHSEVVEYYCNPRFLMKGPNKIQCVDGEWTTLPVCIVEESTCGDIPELEHGWAQLSSPPYYYGDSVEFNCSESFTMIGHRSITCIHGVWTQLPQCVAIDKLKKCKSSNLIILEEHLKNKKEFDHNSNIRYRCRGKEGWIHTVCINGRWDPEVNCSMAQIQLCPPPPQIPNSHNMTTTLNYRDGEKVSVLCQENYLIQEGEEITCKDGRWQSIPLCVEKIPCSQPPQIEHGTINSSRSSQESYAHGTKLSYTCEGGFRISEENETTCYMGKWSSPPQCEGLPCKSPPEISHGVVAHMSDSYQYGEEVTYKCFEGFGIDGPAIAKCLGEKWSHPPSCIKTDCLSLPSFENAIPMGEKKDVYKAGEQVTYTCATYYKMDGASNVTCINSRWTGRPTCRDTSCVNPPTVQNAYIVSRQMSKYPSGERVRYQCRSPYEMFGDEEVMCLNGNWTEPPQCKDSTGKCGPPPPIDNGDITSFPLSVYAPASSVEYQCQNLYQLEGNKRITCRNGQWSEPPKCLHPCVISREIMENYNIALRWTAKQKLYSRTGESVEFVCKRGYRLSSRSHTLRTTCWDGKLEYPTCAKR |
